Reference: patent publication US5972683

Key:
[1] = target: succinyl-Ala-Ala-Pro-Ala-p-nitroanilide (Artificial Sequence)
[2] = target: succinyl-Ala-Ala-Val-Ala-p-nitroanilide (Artificial Sequence)
[3] = target: succinyl-Ala-Ala-Pro-Leu-p-nitroanilide
[4] = target: succinyl-Ala-Ala-Pro-Phe-p-nitroanilide (Artificial Sequence)

| Substance | Specific activity (unit/mg protein), casein (unit/mg protein) (casein) | Specific activity (unit/mg protein), elastin-orcein (unit/mg protein) (elastin-orcein) | Specific activity (unit/mg protein), myofibril (unit/mg protein) (myofibrillar protein) | kcat /Km [1] | kcat /Km [2] | kcat /Km [3] | kcat /Km [4] |
| --- | --- | --- | --- | --- | --- | --- | --- |
| subtilisin YaB mutant G124A (enzyme) | 3800 | 647 | 1020 |  |  |  |  |
| subtilisin YaB mutant G124I (enzyme) | 602 | 64 | 717 |  |  |  |  |
| subtilisin YaB mutant G151A (enzyme) | 1780 | 355 | 750 |  |  |  |  |
| subtilisin YaB mutant G151I (enzyme) | 511 | 138 |  |  |  |  |  |
| subtilisin YaB mutant G159A (enzyme) | 7780 | 2080 | 2040 |  |  |  |  |
| subtilisin YaB mutant G159I (enzyme) | 872 | 142 |  |  |  |  |  |
| subtilisin YaB mutant G159L (enzyme) | 112 | 9 |  |  |  |  |  |
| subtilisin YaB mutant G159S (enzyme; unit assumed) |  |  |  | 1.6 mM⁻¹ s⁻¹ | 19.8 mM⁻¹ s⁻¹ | 4.13 mM⁻¹ s⁻¹ | 35.7 mM⁻¹ s⁻¹ |
| subtilisin YaB mutant G159V (enzyme) | 431 | 37 |  |  |  |  |  |
| subtilisin YaB mutant G159W (enzyme) | 1630 | 324 | 672 |  |  |  |  |
| wild type subtilisin YaB (enzyme) | 8250 | 541 | 5160 |  |  |  |  |
| wild type subtilisin YaB (enzyme; unit assumed) |  |  |  | 1.67 mM⁻¹ s⁻¹ | 14.2 mM⁻¹ s⁻¹ | 5.25 mM⁻¹ s⁻¹ | 4.6 mM⁻¹ s⁻¹ |

The next lines start with the values.

| Specific activity (unit/mg protein), casein (unit/mg protein) (casein) | Specific activity (unit/mg protein), elastin-orcein (unit/mg protein) (elastin-orcein) | Specific activity (unit/mg protein), myofibril (unit/mg protein) (myofibrillar protein) | kcat /Km [1] | kcat /Km [2] | kcat /Km [3] | kcat /Km [4] | Substance |
| --- | --- | --- | --- | --- | --- | --- | --- |
| 717 | 161 |  |  |  |  |  | subtilisin YaB mutant 151L (enzyme) |
|  |  |  | 17 mM⁻¹ s⁻¹ | 122 mM⁻¹ s⁻¹ |  |  | subtilisin YaB mutant G124A (enzyme; unit assumed) |
| 1250 | 157 | 366 |  |  |  |  | subtilisin YaB mutant G124L (enzyme) |
| 1400 | 425 | 605 |  |  |  |  | subtilisin YaB mutant G124V (enzyme) |
|  |  |  | 0.416 mM⁻¹ s⁻¹ | 6.48 mM⁻¹ s⁻¹ |  |  | subtilisin YaB mutant G124V (enzyme; unit assumed) |
|  |  |  | 2.69 mM⁻¹ s⁻¹ | 56.1 mM⁻¹ s⁻¹ | 5.59 mM⁻¹ s⁻¹ |  | subtilisin YaB mutant G151A (enzyme; unit assumed) |
| 618 | 148 |  |  |  |  |  | subtilisin YaB mutant G151V (enzyme) |
|  |  |  | 1.04 mM⁻¹ s⁻¹ | 15.7 mM⁻¹ s⁻¹ | 3.86 mM⁻¹ s⁻¹ | 40.5 mM⁻¹ s⁻¹ | subtilisin YaB mutant G159A (enzyme; unit assumed) |
| 135 | 12 |  |  |  |  |  | subtilisin YaB mutant G159F (enzyme) |
| 8940 | 1510 | 2330 |  |  |  |  | subtilisin YaB mutant G159S (enzyme) |
| 1010 | 203 |  |  |  |  |  | subtilisin YaB mutant G159Y (enzyme) |
